# Measurements: the nanobody polyreactivity screen of Harvey et al. (2022)
# Experiment: yeast display, Sf9 membrane polyspecificity reagent, FACS + sequencing; frameworks hold sequencing errors
# Summary of the method: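 Nanobodies came from a synthetic yeast display library in Saccharomyces cerevisiae BJ5465, induced with galactose for 36–48 hours and stained for 1 hour at 4 °C with 10% biotinylated, detergent-solubilized Sf9 membrane reagent. Cells were enriched on streptavidin microbeads and then FACS-sorted, with low and high (top ~1%) gates set on anti-HA fluorescence for expression and streptavidin fluorescence for reagent binding. Each polyreactivity label reflects the gate a clone came from. Genes were amplified by colony PCR, sequenced by MiSeq 2 × 250 and filtered by CDR length.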
row,Sequence,polyreactivity (PSR sort gate)
1,QVQLVESGGGLVQAGGSLRLSCAASGLTFSVYAMGWYRQAPGKERELVAAISGSGGSTYYADSVKGRFTISRDNAKNTVYLQMNSLKPEDTAVYYCAARYDVHYDGMDYWGLGTQVTVSS,low polyreactivity
2,QVQLVESGGGLVQAGGSLRLSCAASGLTFSYYAMGWYRPAPGKERELVAAITSSGGNTYYADSVKGRFTISRDYAKNTVYLQMNSLKPEDTAGDSCTARRYLRGYGYGYWGQGTQVTVSS,high polyreactivity
3,QVQLVESGGGLVQAGGSLRLSCAASGLTFSYYAMGWYRQAPGKERELVAAISSSGGSTYYADSVKGRFTISRDYAKNTVYLQMTSLKPEDTAVYYCATAASPVRKRYDYWGQGTQVTVSS,high polyreactivity
4,QVQLVESGGGLVQAGGSLRLSCAASGLTFSYYAMGWYRQAPGKERELVAAISWSGGITYYADSVKGRFTISRDNAKNTVYLQMNSLKPEDTAVYYCAADGYPTLYDYWGQGTQVTVSS,high polyreactivity
5,QVQLVESGGGLVQAGGSLRLSCAASGLTFSYYAMGWYRQAPGKERELVAAITRSGTRTYYADSVKGRFTISRDNAKNTVYLQMNSLKPVDTAVYYCARYLRGDFQQGEHWGQGTQVTVSS,high polyreactivity
6,QVQLVESGGGLVQAGGSLRLSCAASGLTFTFYTMGWYRQAPGKERELVAAISIGGSTYYADSVKGRFTISRDNAKNTVYLQMNSLKQEDTAVYYCAAGYSRYYGHWGYYYWGQGTQVTVSS,high polyreactivity
7,QVQLVESGGGLVQAGGSLRLSCAASGLTFTSYAMGWYRQAPGKERELVAAIDWSGGRTYYADSVKGRFTISRDNAKNTVYLQMNSLKPEDTAVYYCAAYSRNRALRFNYWGQGTQVTVSS,high polyreactivity
8,QVQLVESGGGLVQAGGSLRLSCAASGLTFTYYAMGWNRQAPGKQRELVAAISSSGSDTYYADSVKGRFTISRDNAKNTVYLLMNSLKPEDTAVYYCAAVLTALSPDFEYEYWGQGTQVTVSS,low polyreactivity
9,QVQLVESGGGLVQAGGSLRLSCAASGLTFTYYAMGWYRQAPGKERELVAAITYSGDSKYYADSVKGLFTISRDNAKNTVYLQMNSLKPEDTAVYYCNAEQYLYYILGNYDYWGQGTQVTVSS,low polyreactivity
10,QVQLVESGGGLVQAGGSLRLSCAASGLTFVDNALGWYRQAPGKERELVAAISYNGGSTYYADSVKGRFTISRDNAKNTVYLQMNSLKPEDTAVYYCAADISVGRYGDMDYWGQGTQVTVSS,low polyreactivity
11,QVQLVESGGGLVQAGGSLRLSCAASGLTFVDYAMGWYRQAPGKERELVADYYFQRWFYGLRRLCEGALHNFTRQCQEYRNLQMNSLKPEDTAVYYCNTDGPTVAYSEYYYWGQGTQVTVSS,low polyreactivity
12,QVQLVESGGGLVQAGGSLRLSCAASGLTFVDYTKGWYRQAPGNERELVAAIDWSGGSTYYADSVKGRFTISRDNAKNPVYLQMNSLKPEDTAVYYCNALRRFYSMDDYWGQGTQVTVSS,low polyreactivity
13,QVQLVESGGGLVQAGGSLRLSCAASGLTFVEYAMGWYRQAPGKEREFVAAIRSRGGSTYYADSVKGRFTISRDNAKNTVYLQMNSLKPEDTAVYYCTADGYFWGQGTQVTVSS,low polyreactivity
14,QVQLVESGGGLVQAGGSLRLSCAASGLTFVGYAMGWNRQAPGKERELVAAISGVGTTNYGDSVKGRFTISRDNAKNTVYLQMNSLKPEDTAVYYCAKAPYPVPYGLYDYWGQGTQVTVSS,low polyreactivity
15,QVQLVESGGGLVQAGGSLRLSCAASGLTFVKNAMGWNRQAPGKERELVAAITVSGSRTYYADSVKGRFTISRDNAKNTVYLQMNSLKPEDTGVYYCNAYPYYLVRNMDSWGQGTLVTVSS,high polyreactivity
16,QVQLVESGGGLVQAGGSLRLSCAASGLTFVKNAMGWYRQAPGKERELVATISSGGSTNYADSVKGRFTISRDNAKNTVYLQMNSLKPEDTAVYYCNKDYTGVLLWIWWDRYDYWGQATQVTVSS,high polyreactivity
17,QVQLVESGGGLVQAGGSLRLSCAASGLTFVQNAMGWYRQAPGKERELVAAISSRGGSTYYADSVKGRFTISRDNAKNTVYLQMNSLKPEETAVYYCNTRSITKYDYWRRGYGYWGQGTQVTVSS,high polyreactivity
18,QVQLVESGGGLVQAGGSLRLSCAASGLTFVTNAMGWYRQAPGKERELVAGISWSDGSTYYADSVKGRFTISRDNAKNTVYLQMNSVKPEDSAVYYCNAGVDLHYGYITYGVYGYDYWGQGTQVTVSS,low polyreactivity
19,QVQLVESGGGLVQAGGSLRLSCAASGLTFVWYAMGWYRQAPGKDRELVAAITLSGGSTYYADSGKGRFTISRDNAKNTVYLQMNSLIPEDTAVYYCAADGTYRPEDYDYWGQGTQVTVSS,low polyreactivity
20,QVQLVESGGGLVQAGGSLRLSCAASGLTFVYNNMGWYRQAPGKERELVAAINWSGGRTYYADSVKGRFTISRDNAKNTVYLQMNSLKPEDTAVYYCAALYVPNTPTYKYDYWGQGTQVTVSS,low polyreactivity
21,QVQLVESGGGLVQAGGSLRLSCAASGLTFVYYAMGWYRQAPGKERELLAAISRSGGSTYYADSVKGRFTISRDNAKNTVYLQMNSLKPEDTAVYYCAAEATKWFGVVTMDYWGQGTQVTVSS,high polyreactivity

row,Sequence,polyreactivity (PSR sort gate)
1,QVQLVESGGGLVQAGGSLRLSCAASGLTFVYYAMGWYRQAPGKERELVASITRGGSTNYADSVKGRFTISRDNAKNTVYLQMTSLKPEDTAVYYCAAGYGGWAWIHVSYGGDYWGQGTQVSVSS,low polyreactivity
2,QVQLVESGGGLVQAGGSLRLSCAASGLTFWANTMGWYRQAPGKERELVAAITWSGGSTYYADSVKGRFTISRDNAKNTVNLQMNSLKPEDTAVYYCAADEYFAAGYSYYYWGQGSQVTVSS,low polyreactivity
3,QVQLVESGGGLVQAGGSLRLSCAASGLTFWDYAMGWYRQAPGKETELVAAISNDDSTYADSVKGRFTISRDNAKNTVYLQMNSLKPEDTAVYYCAAQSYYTWPEMGYWGQGTQVTVSS,low polyreactivity
4,QVQLVESGGGLVQAGGSLRLSCAASGLTFWKYTMGWYRQAPGKERELVAAISISGTNTYYADSVKGRFTISRDNAKNTVYLQMNSLKPEDTAVYYCAAVRGYPPTNYYYWGQGTQVSVSS,high polyreactivity
5,QVQLVESGGGLVQAGGSLRLSCAASGLTFWKYTMGWYRQAPGKERELVAAISISGTNTYYADSVKGRFTISRDNAKNTVYLQMNSLKPEDTAVYYCAAVRGYPPTNYYYWGQGTQVTVSS,high polyreactivity
6,QVQLVESGGGLVQAGGSLRLSCAASGLTFWVYTMGWYRQAPGKERELVARITSRGASTYYADSVKGRFTISRDNAKNTVYLQMNSLKPEDTAVYYCATDRYRIYPDYDYWGQGTQVTVSS,high polyreactivity
7,QVQLVESGGGLVQAGGSLRLSCAASGLTFWYYAMGWYRQAPGKERELVAAISWSGGRTSYADSVKGRFTISRDNAKNTVYLQMNSLKPEDTAVYYCAADKDFRTGEFEYDYWGQGTQLTVSS,high polyreactivity
8,QVQLVESGGGLVQAGGSLRLSCAASGLTFYFYAMGWYIQAPGKERELVAAIDWGGGSTYYADSVKGRFTISRDYAKNTVYLQMNSLKPEDTAVYYCAARGYYYNYDVNYWGQGTQVTVSS,low polyreactivity
9,QVQLVESGGGLVQAGGSLRLSCAASGLTFYFYAMGWYRQAPGKERELVAAIDWGGGSTYYADSVKGRFTISRDNAKNTVYLQMNSLKPEDTAVYYCAARGYYYNYDVNYWGQGTQVTVSS,low polyreactivity
10,QVQLVESGGGLVQAGGSLRLSCAASGLTFYGNAMGWYRQAPGKERELVAAISSSGGTTYYADSVKGRFTISRDNAKNTVYLQMNSLKPEDTAVYYYWGQGTQVTVSS,low polyreactivity
11,QVQLVESGGGLVQAGGSLRLSCAASGLTFYGNAMGWYRQAPGKERELVAAISSSGGTTYYADSVKGRFTISRDNEKNTVYLQMNSLKPEDTAVYYCNTRNTYFYAGYDYWGQGTQVTVSS,low polyreactivity
12,QVQLVESGGGLVQAGGSLRLSCAASGLTFYGNAMGWYRQAPGKETELVADISLSGGRTFYADSVKGRFTISRDNAKNTVYLQMNSLKPEDTAVYYCAKTYTSGYHRRYDYWGQGTQVTVSS,low polyreactivity
13,QVQLVESGGGLVQAGGSLRLSCAASGLTFYGYGMGWYRPGPGKERELVASITSGGNTYYADSVKGRFTISRDNAKNNVYLQMYSLKPEDNAVSYCAVTAIALYYSSGYYWGQGTQVTVSS,low polyreactivity
14,QVQLVESGGGLVQAGGSLRLSCAASGLTFYGYTMGWSRQAPGKERELVAAISWSGGNTYYADSVKGRFTISRDNEKNTVYLQMNSLKPEDTAVYYCAAEHWTYDWVDYWGQGTQVTVSS,low polyreactivity
15,QVQLVESGGGLVQAGGSLRLSCAASGLTFYHVNAMGWYRQAPGKERELVAGISTRGGSTYYADSVKGRFTISRDNAKNTVYLQMNSLKPEDTAVYYCAAYGSAAQKYPYDRPYRYGYWGQGTQVTVSS,high polyreactivity
16,QVQLVESGGGLVQAGGSLRLSCAASGLTFYHYAMGSYRQAPGKERELVAAITTIGGSTNYADSVKGRFTISRDNAKNTVYLQMNSLKPADNAVYYCAKKLTDAQASSHYDYWGQGTQVTVSS,low polyreactivity
17,QVQLVESGGGLVQAGGSLRLSCAASGLTFYIYAMGWYRQAPGKERELVASITWSTTSTSYADSVKGRFTISRDNAKNTVYLQLKSLKPEDTAVYYCNADVPGYFLYDDSYEYWGQGTQVTVSS,low polyreactivity
18,QVQLVESGGGLVQAGGSLRLSCAASGLTFYKNAMGWYRQAPGKERELVAVISSSGGSTYYADSVKGRFTISRDNAKNTVYLQMYSLKPEDSAVYYFARDLYTEYRWGRLTYDYRGQGTQVTVSS,low polyreactivity
19,QVQLVESGGGLVQAGGSLRLSCAASGLTFYLYAMGWYRQAPGKERELVAAISRSGGSTYYADSVKGRFTISRDNAKNTVYLQMNSLKPEDTAVYYCAAVTYYPEIRKYYYWGQGTQVTVSS,high polyreactivity
20,QVQLVESGGGLVQAGGSLRLSCAASGLTFYRNAMGWYRQAPGKERELVAAITKSGARTYYAVSVKGRFTISRDNAKNTVYLQMNSLKPEDTAVYYCAADALNTYYYWGQGTQVTVSS,high polyreactivity
